Assay results taken from PMC8103790.

Substrate: CCCCC/C=C\C/C=C\C/C=C\C/C=C\CCCC(=O)O
Test: purified protein
Conditions: heme cyclooxygenase channel

B1: wild-type human COX-2 (huCOX-2) (Homo sapiens) (protein)
chain: ANPCCSHPCQNRGVCMSVGFDQYKCDCTRTGFYGENCSTPEFLTRIKLFLKPTPNTVHYILTHFKGFWNVVNNIPFLRNAIMSYVLTSRSHLIDSPPTYNADYGYKSWEAFSNLSYYTRALPPVPDDCPTPLGVKGKKQLPDSNEIVEKLLLRRKFIPDPQGSNMMFAFFAQHFTHQFFKTDHKRGPAFTNGLGHGVDLNHIYGETLARQRKLRLFKDGKMKYQIIDGEMYPPTVKDTQAEMIYPPQVPEHLRFAVGQEVFGLVPGLMMYATIWLREHNRVCDVLKQEHPEWGDEQLFQTSRLILIGETIKIVIEDYVQHLSGYHFKLKFDPELLFNKQFQYQNRIAAEFNTLYHWHPLLPDTFQIHDQKYNYQQFIYNNSILLEHGITQFVESFTRQIAGRVAGGRNVPPAVQKVSQASIDQSRQMKYQSFNEYRKRFMLKPYESFEELTGEKEMSAELEALYGDIDAVELYPALLVEKPRPDAIFGETMVEVGAPFSLKGLMGNVICSPAYWKPSTFGGEVGFQIINTASIQSLICNNVKGCPFTSFSVPDPELIKTVTINASSSRSGLDDINPTVLLKERSTEL
- Km: 17.7 ± 1.9 µM
